Laboratory results reported in US20250250357A1 (NANJING ZAIMING PHARMACEUTICAL, published 2025).
Substitutions are numbered along the chain they refer to.

B1: S009-F8-29.1 (antibody, human IgG1, kappa, V domains shown)
VH: QVQLQQSGAELARPGASVKMSCKASGYTFISYTMHWVKQRPGQGLEWIGYINPSSGYTKYNQKFKDKATLTADKSSSTAYMQLNSLTSEDSAVYYCARYYSNPDYYAMDYWGQGTSVTVSS
VL: QIVLTQSPAIMSASPGEKVTITCSASSSVSYMHWFQQKPGTSPKLWIYSTSNLASGVPARFSGSGSGTSYSLTISRMEAEDAATYYCQQRSSYPLTFGGGTKLELKR
notes: human-murine chimeric antibody, human IgG1/kappa constant regions
B2: S009-F8-28.23 (antibody, human IgG1, kappa, V domains shown)
VH: EVQLVESGGDLVKPGGSLKLSCAASGFTFSSYAMSWVRQTPEKRLEWVATISDGGSYTYYPDNVEGRFTISRDNAKNNLYLQMSHLKSEDTAMYYCAGDRGYSYALDYWGQGTSVTVSS
VL: NIMMTQSPSSLAVSAGEKVTMSCKSSQSVLYSSNQKNYLAWYQQKPGQSPKLLIYWASTRESGVPDRFTGSGSGTDFTLTISSVQAEDLAVYYCHQYLSSLTFGAGTKLELKR
notes: as for B1
B3: S009-F8-22.23 (antibody, human IgG1, kappa, V domains shown)
VH: QVQLKQSGPGLVQPSQSLSITCTVSGFSLFSYGVHWVRQSPGKGLEWLGVIWSGGSTDYNAAFISRLSISKDNSKSQVFFKMNSLQADDTAMYYCARNGGSMITTLYYAMDYWGQGTSVTVSS
VL: DVVMTQTPLSLPVSLGDQASISCRSSQSLVHSYGNTYLHWYLQKPGQSPKLLIYKVSNRFSGVPDRFSGSGSGTDFTLKISRVEAEDLGVYFCSQSTHIPFTFGGGTKLEIKR
notes: as for B1
B4: S009-F8-32.3 (antibody, human IgG1, kappa, V domains shown)
VH: QVQLKESGPGLVAPSQSLSITCTVSGFSLSSYAISWVRQPPGKGLEWLGVIWTGGGTNYNSALKSRLSISKDNSKSQVFLKMNSLQTDDTARFYCARNNYGRLDYAMDYWGQGTSVTVSS
VL: B3 VL with S32G, Y33N, A85T, I99V, G105S
notes: as for B1
B5: S009-F8-36.12 (antibody, human IgG1, kappa, V domains shown)
VH: EVQLQQSGPELVKPGASVKISCKASGYTFTDYYMNWVKQSHGKSLEWIGDINPNNGGTSYNQKFKGKATLTVDKSSSTAYMELRSLTSEDSAVYYCASWGYGSSSRGYFDYWGQGTTLTVSS
VL: QIVLSQSPAILSASPGEKVTMTCRASSSVSYMHWYQQKPGSSPKPWIYATSNLASGVPARFSGSGSGTSYSLTISRVEAEDAATYYCQQWSSNPWTFGGGTKLEIKR
notes: as for B1
B6: S009-F8-33.12 (antibody, human IgG1, kappa, V domains shown)
VH: EVQLQQSGAELVKPGASVKLSCTASAFNIKDYYMHWVKQRTEQGLEWIGRIDPEDGETKYAPKFQGKATITADTSSNTAYLQLSSLTSEDTAVYYCASGSGTGAMDYWGQGTSVTVSS
VL: DIVMTQSQKFMSTSVGDRVSITCKASQNVRTAVGWYQQKPGQSPKALIYLASNRHTGVPDRFTGSGSGTDFTLTISNVQSEDLADYFCLQHWNSPYTFGGGTKLVIKR
notes: as for B1
B7: S009-F8-8.22 (antibody, human IgG1, kappa, V domains shown)
VH: EVQLQQSGPELVKPGASVKMSCKASGYTFTDYIIHWVKQSHGKSLEWIAYIFPNNGGTGYNQKFRGKATLTVNKSSSTAYMELRSLTSEDSAVYYCARWRLRQYFDVWGTGTTVTVSS
VL: DIVMTQSQKFMSTIVGDRVSITCKASQNVGTAVAWYQQKPGQSPKLLIYSASNRYTGVPDRFTGSGSGTDFTLTISNMQSEDLADYFCQQYSSYPLTFGGGTKLEIKR
notes: as for B1
B8: S009-F8-24.14 (antibody, human IgG1, kappa, V domains shown)
VH: EFQLQQSGPELVKPGASVKISCKASGYSFTDYNMNWVKLSNGKSLEWIGVIIPNYGTSSYNQKFKGKATLTVDQSSSTAYMQLNSLTSEDSAVYYCARWDNYYGSSLDYWGQGTTLTVSS
VL: B7 VL with I14T, T72I, G100A, I106L
notes: as for B1

These binders were tested against T1, human MSLN protein endogenously expressed on OVCAR3 tumor cells (human, UniProt Q13421 296-598) (assay: FACS on OVCAR3 cells;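 also: flow cytometry of chimeric antibody binding to OVCAR3 cells, 2 h on ice, read as cellular mean fluorescence intensity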).
T1 construct: whole, on cells; endogenous expression on a tumor cell line; also called human mesothelin
T1 sequence (Q13421 other isoform, or with tags, fused parts or gaps): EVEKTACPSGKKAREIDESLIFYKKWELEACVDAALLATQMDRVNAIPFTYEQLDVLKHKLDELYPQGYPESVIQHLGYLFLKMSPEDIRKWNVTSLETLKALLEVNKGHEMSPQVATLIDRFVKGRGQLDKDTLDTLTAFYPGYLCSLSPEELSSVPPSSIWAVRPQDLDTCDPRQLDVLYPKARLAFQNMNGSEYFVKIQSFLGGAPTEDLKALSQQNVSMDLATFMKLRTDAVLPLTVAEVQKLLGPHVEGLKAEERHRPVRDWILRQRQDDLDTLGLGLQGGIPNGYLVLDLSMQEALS
Description: The desired cells were expanded to the logarithmic growth phase in a T-75 cell culture flask. […] After the cells from the previous step were subjected to cell counting, the cell pellet was resuspended to 2×10⁶ cells/mL in a blocking buffer of [PBS+2% (w/w) BSA] and added into a 96-well FACS reaction plate at 50 μL/well. A chimeric antibody (a sample to be tested) was added at 50 μL/well, and the plate was incubated on ice for 2 h. […] After the plate was centrifuged and washed 5 times with a PBST buffer, assay and analysis were performed by FACS (FACS CantoII, purchased from BD). Data analysis was performed by software (Flowjo) to obtain the mean fluorescence intensity (MFI) of the cells.

| EC50 [nM] | Maximum mean fluorescence intensity | Binder |
| --- | --- | --- |
| 33.4 | 5430 | B1 |
| 59.8 | 1290 | B2 |
| 12.8 | 5500 | B3 |
| 14.7 | 8270 | B4 |
| 15.2 | 2510 | B5 |
| 28.4 | 2410 | B6 |
| 9.9 | 4270 | B7 |
| 11.5 | 4700 | B8 |

Each binder was assayed against T2, human MSLN-R3 protein expressed on HEK293T cells (HEK293T-hMSLN-R3) (human, UniProt Q13421 487-606) (assay: FACS on HEK293T-hMSLN-R3 cells;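 also: chimeric antibodies incubated with cells on ice for 2 h, binding read by flow cytometry as mean fluorescence intensity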).
T2 construct: C-terminal limit uncertain
T2 sequence (Q13421 495-614): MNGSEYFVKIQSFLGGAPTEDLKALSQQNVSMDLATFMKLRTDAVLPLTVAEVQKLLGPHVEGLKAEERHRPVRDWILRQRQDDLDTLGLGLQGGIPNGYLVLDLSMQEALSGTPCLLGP

| Maximum mean fluorescence intensity | binding result | EC50 [nM] | Binder |
| --- | --- | --- | --- |
| 69 | no binding |  | B1 |
| 51 | no binding |  | B2 |
| 404 |  |  | B3 |
| 50 | no binding |  | B4 |
| 7970 |  | 11 | B5 |
| 64 | no binding |  | B6 |
| 122 | no binding |  | B7 |
| 82 | no binding |  | B8 |

Each binder was assayed against T3, human MSLN-FL-his protein (human, UniProt Q13421 296-580) (assay: competitive ELISA; row Tab021; also: test concentration or dose not given here).
T3 construct: made in HEK293E cells, purified on nickel column; also called hMSLN-FL-his; human MSLN full-length protein; not shown: His tag
T3 sequence (Q13421 other isoform, or with tags, fused parts or gaps): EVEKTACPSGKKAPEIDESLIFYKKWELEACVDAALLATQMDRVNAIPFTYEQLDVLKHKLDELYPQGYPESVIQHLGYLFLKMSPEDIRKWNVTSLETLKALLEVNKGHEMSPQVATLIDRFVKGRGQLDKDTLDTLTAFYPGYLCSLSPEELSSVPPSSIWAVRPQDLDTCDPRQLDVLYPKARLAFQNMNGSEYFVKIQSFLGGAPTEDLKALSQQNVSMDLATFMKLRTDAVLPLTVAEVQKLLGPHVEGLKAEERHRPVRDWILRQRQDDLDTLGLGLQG

| competition rate [%] | Binder |
| --- | --- |
| 11.1 | B1 |
| 7.7 | B2 |
| 11.4 | B3 |
| 10.9 | B4 |
| 6.4 | B5 |
| 9.4 | B6 |
| 12.6 | B7 |
| 5.3 | B8 |

Each binder was assayed against T3, human MSLN-FL-his protein (assay: competitive ELISA; row Tab142; also: test concentration or dose not given here).

| competition rate [%] | Binder |
| --- | --- |
| 36.8 | B1 |
| 9.8 | B2 |
| 46.4 | B3 |
| 40.6 | B4 |
| 17.4 | B5 |
| 47.9 | B6 |
| 33.8 | B7 |
| 22.9 | B8 |

These binders were tested against T3, human MSLN-FL-his protein (assay: competitive ELISA; row F8-29.1; also: test concentration or dose not given here).

| competition rate [%] | Binder |
| --- | --- |
| 62.2 | B1 |
| 18.8 | B2 |
| 70 | B3 |
| 65.9 | B4 |
| 9.4 | B5 |
| 70.6 | B6 |
| 59.2 | B7 |
| 43.7 | B8 |

These binders were tested against T3, human MSLN-FL-his protein (assay: competitive ELISA; row F8-32.3; also: test concentration or dose not given here).

| competition rate [%] | Binder |
| --- | --- |
| 75.8 | B1 |
| 22.9 | B2 |
| 85.4 | B3 |
| 79.3 | B4 |
| 9.8 | B5 |
| 84.9 | B6 |
| 77.7 | B7 |
| 57.6 | B8 |

These binders were tested against T3, human MSLN-FL-his protein (assay: competitive ELISA; row F8-8.22; also: test concentration or dose not given here).

| competition rate [%] | Binder |
| --- | --- |
| 88.4 | B1 |
| 24.9 | B2 |
| 94 | B3 |
| 94.4 | B4 |
| 5.9 | B5 |
| 96 | B6 |
| 92.2 | B7 |
| 74.5 | B8 |

These binders were tested against T3, human MSLN-FL-his protein (assay: competitive ELISA; row F8-9.16; also: test concentration or dose not given here).

| competition rate [%] | Binder |
| --- | --- |
| -37.3 | B1 |
| -39.8 | B2 |
| -158 | B3 |
| -113 | B4 |
| -47.7 | B5 |
| -89.6 | B6 |
| -52.1 | B7 |
| -65.5 | B8 |

Each binder was assayed against T3, human MSLN-FL-his protein (assay: competitive ELISA; row F8-22.23; also: test concentration or dose not given here).

| competition rate [%] | Binder |
| --- | --- |
| 88.5 | B1 |
| 38.6 | B2 |
| 95.7 | B3 |
| 96.6 | B4 |
| -3.1 | B5 |
| 96.6 | B6 |
| 96.1 | B7 |
| 80.3 | B8 |

The binders below were run against T3, human MSLN-FL-his protein (assay: competitive ELISA; row F8-24.14; also: test concentration or dose not given here).

| competition rate [%] | Binder |
| --- | --- |
| 89.8 | B1 |
| 33.6 | B2 |
| 92.4 | B3 |
| 95 | B4 |
| 10.3 | B5 |
| 95.5 | B6 |
| 91.1 | B7 |
| 77 | B8 |

The binders below were run against T3, human MSLN-FL-his protein (assay: competitive ELISA; row F8-28.23; also: test concentration or dose not given here).

| competition rate [%] | Binder |
| --- | --- |
| 96 | B1 |
| 73.4 | B2 |
| 100 | B3 |
| 102 | B4 |
| -10.7 | B5 |
| 102 | B6 |
| 97.4 | B7 |
| 95 | B8 |

These binders were tested against T3, human MSLN-FL-his protein (assay: competitive ELISA; row F8-33.12; also: test concentration or dose not given here).

| competition rate [%] | Binder |
| --- | --- |
| 47.3 | B1 |
| 10 | B2 |
| 60.3 | B3 |
| 56.5 | B4 |
| 8.3 | B5 |
| 62.8 | B6 |
| 53.5 | B7 |
| 27.8 | B8 |

These binders were tested against T3, human MSLN-FL-his protein (assay: competitive ELISA; row F8-36.12; also: test concentration or dose not given here).

| competition rate [%] | Binder |
| --- | --- |
| -146 | B1 |
| -79.5 | B2 |
| -156 | B3 |
| -164 | B4 |
| 61.5 | B5 |
| -134 | B6 |
| -138 | B7 |
| -142 | B8 |

What follows are binders tested against T3, human MSLN-FL-his protein (assay: SPR (Biacore), antibody captured on Protein A chip;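 also: flow cell at 25 °C, antigen injected for 240 s at five concentrations from 200 nM downward, dissociation followed up to 600 s, double-referenced, fitted with Langmuir 1:1 model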).

| Kd [nM] | koff [s⁻¹] | kon [M⁻¹ s⁻¹] | Binder |
| --- | --- | --- | --- |
| 27.4 | 0.0199 | 728000 | B1 |
| 44 | 0.00843 | 192000 | B2 |
| 6.35 | 0.00275 | 433000 | B3 |
| 6.5 | 0.00331 | 510000 | B4 |
| 103 | 0.0122 | 118000 | B5 |
| 5.77 | 0.0361 | 6.27e+06 | B6 |
| 12.8 | 0.00937 | 732000 | B7 |
| 9.13 | 0.00501 | 549000 | B8 |
